Several values for one entry are separate records, joined by “and”; a condition that tells them apart may be missing. Equal entries are not always repeated. Where two headings read alike, the source gives them in different places.
Columns and labels:
[1] = target: T1, recombinant human IL-23 (p19/p40) (human, UniProt Q9NPF7 20-189; P29460 23-328); test: SPR Biacore, hIL-23 on chip
T1 construct: Bought heterodimer (R&D Systems or eBioscience); biotinylated in the alpha-screens; also called hIL-23
T1 sequence (looked up) 1: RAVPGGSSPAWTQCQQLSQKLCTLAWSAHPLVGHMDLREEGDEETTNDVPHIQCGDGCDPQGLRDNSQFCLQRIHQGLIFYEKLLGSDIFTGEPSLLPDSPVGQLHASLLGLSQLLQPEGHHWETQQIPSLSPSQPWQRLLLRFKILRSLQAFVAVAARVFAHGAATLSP
T1 sequence (looked up) 2: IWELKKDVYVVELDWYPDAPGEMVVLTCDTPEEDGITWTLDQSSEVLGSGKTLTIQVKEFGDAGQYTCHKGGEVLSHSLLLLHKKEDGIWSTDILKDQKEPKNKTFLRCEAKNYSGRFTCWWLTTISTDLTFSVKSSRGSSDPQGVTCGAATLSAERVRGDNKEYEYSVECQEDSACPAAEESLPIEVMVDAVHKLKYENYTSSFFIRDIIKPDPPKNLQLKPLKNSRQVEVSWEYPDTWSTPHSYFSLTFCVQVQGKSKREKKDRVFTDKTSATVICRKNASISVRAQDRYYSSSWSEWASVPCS
Method: (§1) Nanobody binding was assessed at one concentration (100 nM). Each Nanobody was injected for 4 minutes at a flow rate of 45 μl/min to allow binding to chip-bound antigen. Next, binding buffer without Nanobody was sent over the chip at the same flow rate to allow spontaneous dissociation of bound Nanobody.

[2] = target: T1, recombinant human IL-23 (p19/p40); test: SPR Biacore, hIL-23 on chip; remark: listed apart in the source
Method: as §1

cynomolgus IL-23 [3] = target: T2, cynomolgus IL-23 (cynomolgus); test: SPR Biacore, cyno IL-23 on chip
T2 construct: also called cyno IL-23; cIL-23

[4] = target: T1, recombinant human IL-23 (p19/p40); test: cell-based or functional assay
cynomolgus IL-23 [5] = target: T2, cynomolgus IL-23; test: cell-based or functional assay
recombinant human IL-12 [6] = target: T3, recombinant human IL-12 (human, UniProt P29459 23-219; P29460 23-328); test: cell-based or functional assay
T3 sequence (looked up) 1: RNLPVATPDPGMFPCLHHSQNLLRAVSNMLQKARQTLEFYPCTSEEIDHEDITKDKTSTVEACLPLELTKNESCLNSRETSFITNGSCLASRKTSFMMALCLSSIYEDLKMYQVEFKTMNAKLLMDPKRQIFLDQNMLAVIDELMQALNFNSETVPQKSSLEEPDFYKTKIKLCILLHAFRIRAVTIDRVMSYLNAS
T3 sequence (looked up) 2: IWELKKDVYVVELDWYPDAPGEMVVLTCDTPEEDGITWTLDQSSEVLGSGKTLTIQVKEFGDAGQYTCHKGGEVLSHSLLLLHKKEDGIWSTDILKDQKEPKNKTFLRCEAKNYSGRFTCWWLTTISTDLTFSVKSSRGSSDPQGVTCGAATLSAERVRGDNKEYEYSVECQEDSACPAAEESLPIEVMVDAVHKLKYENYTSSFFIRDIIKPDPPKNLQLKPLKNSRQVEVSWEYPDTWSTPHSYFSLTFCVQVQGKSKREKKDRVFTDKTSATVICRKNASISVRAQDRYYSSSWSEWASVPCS

cynomolgus IL-23 [7] = target: T2, cynomolgus IL-23; test: SPR Biacore, cyno IL-23 on chip; remark: listed apart in the source
recombinant human IL-12 [8] = target: T3, recombinant human IL-12; test: alpha-screen, hIL-12/IL12Rbeta1-Fc
Method: Human IL-23R-Fc chimera and hIL12Rbeta1-Fc chimera (R&D Systems, Minneapolis, Minn., US) were coupled to acceptor beads according to manufacturer instructions (Perkin Elmer, Waltham, Mass., US).
To this mixture, the IL12Rbeta1 acceptor beads and the streptavidin donor beads were added and further incubated for 1 hour at RT.

[9] = target: T1, recombinant human IL-23 (p19/p40); test: cell-based or functional assay; remark: listed apart in the source
cynomolgus IL-23 [10] = target: T2, cynomolgus IL-23; test: cell-based or functional assay; remark: listed apart in the source

B1: P23IL 3F11 (VHH)
VHH: EVQLVESGGGLVQAGGSLRLSCAASGSIFSINAMGWFRQAPGKERQFVAAINWSTGSTYYSDSVKGRFTISRDNAKNTVYLQMNSLKPEDTAVYFCASGYLFPSSRGSQYDYWGQGTQVTVSS
notes: p40+ Nanobody; c-myc, His6-tagged
Work on B1 yielded a koff [1] of 0.00146 s⁻¹.

B2: P23IL 20F2 (VHH)
VHH: EVQLVESGGGLVQPGGSLRLSCAASGFSLDYTAIGWFRQAPGKEREVVSCFTSVPGSTYHADSVKGRFTIASDNAKNTVYLQMNDLKPEDTAVYYCATDAQTYYSGSYCGRTPQEYPYWGQGTQVTVSS
notes: p40- Nanobody
For B2, the koff [2] was 0.00054 s⁻¹.

B3: P23IL80D10 (VHH)
VHH: EVQLVESGGGLVQAGGSLRLSCAASGRTFEGNPMGWFRQASGKKREFVASIDWSGGITSYADSVKGRFTISRDNAKNTVYLQMNSLKPEDTAVYYCAASARFGSGSYYDLMYDYWGQGTQVTVSS
notes: p40- Nanobody
For B3, the koff [2] was 9.7e-05 s⁻¹ and the koff (cynomolgus IL-23 [3]) was 0.000105 s⁻¹ and 7.9e-05 s⁻¹.

B4: P23IL-22D7 (VHH)
VHH: EVQLVESGGGLVQAGGSLRLSCASSGRTFSIYARGWFRQAPGKEREFVAAIRSGLTTYSDSVKGRFTISRDIAKNTVFLQMNSLKSEDTAVYYCAAAVNYFTDFTDYSKRDSYDYWGQGTQVTVSS
notes: p40+ Nanobody
For B4, the “IC50, mouse splenocyte assay (mIL-22)” value [4] was 0.116 nM, the “IC50, mouse splenocyte assay (mIL-22)” value (cynomolgus IL-23 [5]) was 0.705 nM and the “IC50, PHA blast proliferation, 1 pM hIL-12” value (recombinant human IL-12 [6]) was 116 pM. The koff [1] was 0.00017 s⁻¹, the koff (cynomolgus IL-23 [7]) was 0.00023 s⁻¹ and the IC50 (recombinant human IL-12 [8]) was 1.9 nM.

B5: P23IL119A3-35GS-81A12 (bispecific antibody)
chain: EVQLVESGGGLVQAGGSLRLSCAASGRIFSLPASGNIFNLLTIAWHRQAPGMQRELVATINSGSRTNYADSVKGRFTISRDNAQKTVYLQMNNLKPEDTAVYYCQTSGSGSPNFWGQGTQVTVSSGGGGSGGGGSGGGGSGGGGSGGGGSGGGGSGGGGSEVQLVESGGGLVQAGGSLRLSCAASGRTLSSYAMGWFRQAPGKEREFVARISQGGTAIYYADSVKGRFTISRDNAKNTVYLQMNSLKPEDTAVYYCAKDPSPYYRGSAYLLSGSYDSWGQGTQVTVSS
For B5, the “IC50, splenocyte assay, 19 pM hIL-23” value [9] was 7 pM and the “IC50, splenocyte assay, 3.8 pM cIL-23” value (cynomolgus IL-23 [10]) was 5 pM.

B6: P23IL-23E3 (VHH)
VHH: EVQLVESGGELVQAGGSLRLSCAASGSIVSISAMAWYRQAPGKQRERVATITRGGTPDYADSAKDRFTISRDNAKNTVSLQMNNLKPEDTAVYYCKAALRTPTHDYNYYDYWGQGTQVTVSS
notes: p40+ Nanobody
B6 was tested, and the “IC50, mouse splenocyte assay (mIL-22)” value [4] was 0.935 nM, the “IC50, mouse splenocyte assay (mIL-22)” value (cynomolgus IL-23 [5]) was 5.46 nM and the “IC50, PHA blast proliferation, 1 pM hIL-12; nc = no complete blocking” value (recombinant human IL-12 [6]) was 1730 pM. For the same binder, the koff [1] was 0.00018 s⁻¹, the koff (cynomolgus IL-23 [7]) was 0.0012 s⁻¹ and 0.0025 s⁻¹ and the IC50 (recombinant human IL-12 [8]) was 1.2 nM.

B7: P23IL-22E11 (VHH)
VHH: EVQLVESGGGLVQAGGSLRLSCAASGRTFSWSAVGWFRQAPGKEREFVAAIRWSGGSPYYADSVKDRFTISRDNAKNTVYLQMNSLRPEDTAVYLCGETSLFPTSRGSHYDTWGQGTQVTVSS
In the case of B7, the “IC50, mouse splenocyte assay (mIL-22)” value [4] is reported as 0.186 nM, the “IC50, mouse splenocyte assay (mIL-22)” value (cynomolgus IL-23 [5]) is reported as 1.27 nM and the “IC50, PHA blast proliferation, 1 pM hIL-12” value (recombinant human IL-12 [6]) is reported as 159 pM. The koff [1] was 0.00023 s⁻¹, the koff (cynomolgus IL-23 [7]) was 0.00023 s⁻¹ and the IC50 (recombinant human IL-12 [8]) was 1.3 nM.

B8: P23IL 84A12 (VHH)
VHH: EVQLVESGGGVVQAGESLRLSCAASGRSFSDYEMGWFRQAPGTEREFVASINRRGSSTFYADSVKGRFTISRDNTKNTVYLQMSSLKPEDTAVYLCAAGWLFPSSRSRDYDYWGQGTQVTVSS
notes: as for B1
B8 showed a koff [1] of 0.0016 s⁻¹ and an IC50 (recombinant human IL-12 [8]) of 0.96 nM.

B9: P23IL 21C4 (VHH)
VHH: EVQLVESGGGLVQAGGSLRLSCAASGRTFSGYDMGWFRQAPGKEREFVAQISRHNSNTYYADAVKGRFTISRDNAKNTVSLQMNSLKPEDTAVYYCAIGSLFPSSRERDYDYWGQGTQVTVSS
notes: as for B1
With B9 the koff [1] was 0.00051 s⁻¹ and the IC50 (recombinant human IL-12 [8]) was 1.63 nM.

B10: P23IL-23H3 (VHH)
VHH: EVQLVESGGGLVQAGDSLRLSCAASGRSFSNDAMGWFRQAPGKERSFVAAINWSGELTGYAGSVKGRFTISRDGVENMVFLQMNSLVPEDTGVYYCAAVEGRDYYRGAQYYDYWGQGTQVTVSS
notes: p40+ Nanobody
For B10, the “IC50, mouse splenocyte assay (mIL-22)” value [4] was 0.79 nM, the “IC50, mouse splenocyte assay (mIL-22)” value (cynomolgus IL-23 [5]) was 32.5 nM and the “IC50, PHA blast proliferation, 1 pM hIL-12” value (recombinant human IL-12 [6]) was 174 pM. It also gave a koff [1] of 0.0011 s⁻¹, a koff (cynomolgus IL-23 [7]) of 0.00067 s⁻¹ and an IC50 (recombinant human IL-12 [8]) of 1.2 nM.

Reference: US20110053865A1 (Ablynx, published 2011)
